Key:
[1] = molecular target: histones H3-H4 (full-length, recombinant Drosophila melanogaster) (Drosophila melanogaster) (UniProt P02299); assay: SEC-MALS; Superdex 200 10/300 GL Increase, 50 mM Tris pH 8.0, 1.5 M NaCl; for H3-H4 alone: tetramer of two H3-H4 dimers
[2] = molecular target: histones H3-H4 (full-length, recombinant Drosophila melanogaster) (Drosophila melanogaster) (UniProt P02299); assay: SEC-MALS; Superdex 200 10/300 GL Increase, 50 mM Tris pH 8.0, 0.5 M NaCl, 20°C

Sequence of ASF1a (1–156) (Q9Y294 1-156): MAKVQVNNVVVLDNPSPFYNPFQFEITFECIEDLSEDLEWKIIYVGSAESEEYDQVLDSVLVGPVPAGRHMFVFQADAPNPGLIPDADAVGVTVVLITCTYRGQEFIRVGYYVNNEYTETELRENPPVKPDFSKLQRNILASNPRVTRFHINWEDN

## ASF1a (1–156) (from UniProt Q9Y294 1-156) (domain or fragment; other documents disagree on this pair)
[1]
  stoichiometry N (ASF1 per H3-H4 dimer (ratio H3:H4:ASF1)): 1
[2]
  stoichiometry N (ASF1 per H3-H4 dimer (ratio H3:H4:ASF1)): 1

## histones H3-H4 (full-length, recombinant Drosophila melanogaster) (from UniProt P02299 1-136; P84040 1-103) (complex)
[1]; scale: H3-H4 dimers in the oligomer
  stoichiometry N: 2

Source: article PMC4330383
